We go through 2 molecules from patent US20030120051A1 (SUGEN, published 2003).

The target of assay [1] is endogenous c-Src of rat GH3 cells (rat, UniProt Q9WUD9 2-536, limits assumed). Kind of assay: immunoprecipitation and immunoblotting of endogenous proteins in GH3 cells. For orientation: In western blotting, separated proteins are transferred to a membrane and probed.
A further assay deals with human c-Src (human, UniProt P12931 2-536). Kind of assay: immunoprecipitation and immunoblotting of endogenous proteins in IMR-32 cells.

B1: rat CASPR/p190 (receptor)
chain: WGYYGCNEELVGPLYARSLGASSYYGLFTTARFARLHGISGWSPRIGDPNPWLQIDLMKKHRIRAVATQGAFNSWDWVTRYMLLYGDRVDSWTPFYQQGHNATFFGNVNDSAVVRHDLHYHFTARYIRIVPLAWNPRGKIGLRLGIYGCPYTSNILYFDGDDAISYRFQRGASQSLWDVFAFSFKTEEKDGLLLHTEGSQGDYVTLELQGAHLLLHMSLGSSPIQPRPGHTTVSAGGVLNDLSWHYVRVDRYGREANLTLDGYVHRFVLNGDFERLNLENEIFIGGLVGAARKNLAYRHNFRGCIENVIYNRINIAEMAVQRHSRITFEGNVAFRCLDPVPHPINFGGPHNFVQVPGFPRRGRLAVSFRFRTWDLTGLLLFSRLGDGLGHVELMLSEGQVNVSIAQTGRKKLQFAAGYRLNDGFWHEVNFVAQENHAVISIDDVEGAEVRVSYPLLIRTGTSYFFGGCPKPASRWGCHSNQTAFHGCMELLKVDGQLVNLTLVEFRKLGYFAEVLFDTCGITDRCSPNMCEHDGRCYQSWDDFICYCELTGYKGVTCHEPLYKESCEAYRLSGKYSGNYTIDPDGSGPLKPFVVYCDIRENRAWTVVRHDRLWTTRVTGSSMDRPFLGAIQYWNASWEEVSALANASQHCEQWIEFSCYNSRLLNTAGGYPYSFWIGRNEEQHFYWGGSQPGIQRCACGLDQSCIDPALHCNCDADQPQWRTDKGLLTFVDHLPVTQVVIGDTNRSSSEAQFFLRPLRCYGDRNSWNTISFRTGAALRFPPIRANHSLDVSFYFRTSAPSGVFLENMGGPFCQWRRPYVRVELNTSRDVVFAFDIGNGDENLTVHSDDFEFNDDEWHLVRAEINVKQARLRVDHRPWVLRPMPLQTYIWLEYDQPLYVGSAELKRRPFVGCLRAMRLNGVTLNLEGRANASEGTFPNCTGHCTHPRFPCFHGGRCVERYSYYTCDCDLTAFDGPYCNHDIGGFFETGTWMRYNLQSALRSAAQEFSHMLSRPVPGYEPGYIPGYDTPGYVPGYHGPGYRLPDYPRPGRPVPGYRGPVYNVTGEEVSFSFSTSSAPAVLLYVSSFVRDYMAVLIKEDGTLQLRYQLGTSPYVYQLTTRPVTDGQPHSVNITRVYRNLFIQVDYFPLTEQKFSLLVDSQLDSPKALYLGRVMETGVIDPEIQRYNTPGFSGCLSGVRFNNVAPLKTHFRTPRPMTAELAEAMRVQGELSESNCGAMPRLVSEVPPELDPWYLPPDFPYYHDDGWIAILLGFLVAFLLLGLVGMLVLFYLQNHRYKGSYHTNEPKATHDSHPGGKAPLPPSGPAQAPAPTPAPTQVPTPAPAPASGPGPRDQNLPQILEESRSE
notes: Endogenous in GH3 cells and rat brain, or expressed from pCM190R in COS7 cells; read from membrane lysates; no cleavage site stated; also called Contactin ASsociated PRotein; 190 kDa protein
As to B1, in assay [1], the binding result is “no binding”.

B2: human CASPR/p190 (receptor)
chain: WGYYGCDEELVGPLYARSLGASSYYSLLTAPRFARLHGISGWSPRIGDPNPWLQIDLMKKHRIRAVATQGSFNSWDWVTRYMLLYGDRVDSWTPFYQRGHNSTFFGNVNESAVVRHDLHFHFTARYIRIVPLAWNPRGKIGLRLGLYGCPYKADILYFDGDDAISYRFPRGVSRSLWDVFAFSFKTEEKDGLLLHAEGAQGDYVTLELEGAHLLLHMSLGSSPIQPRPGHTTVSAGGVLNDQHWHYVRVDRFGRDVNFTLDGYVQRFILNGDFERLNLDTEMFIGGLVGAARKNLAYRHNFRGCIENVIFNRVNIADLAVRRHSRITFEGKVAFRCLDPVPHPINFGGPHNFVQVPGFPRRGRLAVSFRFRTWDLTGLLLFSRLGDGLGHVELTLSEGQVNVSIAQSGRKKLQFAAGYRLNDGFWHEVNFVAQENHAVISIDDVEGAEVRVSYPLLIRTGTSYFFGGCPKPASRWDCHSNQTAFHGCMELLKVDGQLVNLTLVEGRRLGFYAEVLFDTCGITDRCSPNMCEHDGRCYQSWDDFICYCELTGYKGETCHTPLYKESCEAYRLSGKTSGNFTIDPDGSGPLKPFVVYCDIRENRAWTVVRHDRLWTTRVTGSSMERPFLGAIQYWNASWEEVSALANASQHCEQWIEFSCYNSRLLNTAGGYPYSFWIGRNEEQHFYWGGSQPGIQRCACGLDRSCVDPALYCNCDADQPQWRTDKGLLTFVDHLPVTQVVIGDTNRSTSEAQFFLRPLRCYGDRNSWNTISFHTGAALRFPPIRANHSLDVSFYFRTSAPSGVFLENMGGPYCQWRRPYVRVELNTSRDVVFAFDVGNGDENLTVHSDDFEFNDDEWHLVRAEINVKQARLRVDHRPWVLRPMPLQTYIWMEYDQPLYVGSAELKRRPFVGCLRAMRLNGVTLNLEGRANASEGTSPNCTGHCAHPRLPCFHGGRCVERYSYYTCDCDLTAFDGPYCNHDIGGFFEPGTWMRYNLQSALRSAAREFSHMLSRPVPGYEPGYIPGYDTPGYVPGYHGPGYRLPDYPRPGRPVPGYRGPVYNVTGEEVSFSFSTSSAPAVLLYVSSFVRDYMAVLIKDDGTLQLRYQLGTSPYVYQLTTRPVTDGQPHSINITRVYRNLFIQVDYFPLTEQKFSLLVDSQLDSPKALYLGRVMETGVIDPEIQRYNTPGFSGCLSGVRFNNVAPLKTHFRTPRPMTAELAEALRVQGELSESNCGAMPRLVSEVPPELDPWYLPPDFPYYHDEGWVAILLGFLVAFLLLGLVGMLVLFYLQNHRYKGSYHTNEPKAAHEYHPGSKPPLPTSGPAQVPTPTAAPNQAPASAPAPAPTPAPAPGPRDQNLPQILEESRSE
notes: Endogenous in IMR-32 neuroblastoma cells
For B2, the binding result in the assay with human c-Src is “no binding”.
